Data as given in PMC7617869, “Molecular glues that inhibit deubiquitylase activity and inflammatory signaling” (Nature Structural & Molecular Biology, 2025).
Several values for one entry are separate records, joined by “and”; a condition that tells them apart may be missing. Identical values can stand only once.

Legend:
Format in all cases: biochemical
BRISC = target: T1, BRISC (Homo sapiens, UniProt P46736+Q15018+Q9NXR7); assay: BRISC DUB activity assay (IQF K63-linked diubiquitin); details: BRISC WT
T1 construct: made in house; host or cells: Spodoptera frugiperda (Sf9) insect cells, MultiBac
Procedure: (§1) IQF assays were performed in DUB reaction buffer containing 50 mM HEPES–NaOH pH 7.0, 100 mM NaCl, 0.1 mg ml^−1 BSA, 1 mM DTT and 0.03% v/v Brij-35. […] The final concentration of BRISC WT, all BRISC mutants, HsBRISCΔLoop, MmBRISC and DrBRISCΔNΔC was 1 nM. Other enzymes were tested at the following concentrations: 5 nM ARISC (FL), 10 nM CfBRISCΔNΔC, 250 nM AMSH* (ref. [43]), 500 nM USP2 and 1 μM trypsin (Sigma, 9002-07-7). For Michaelis–Menten experiments, 1 nM BRISC with 0–1 μM IQF K63-linked diubiquitin substrate was used. Michaelis–Menten analyses and Lineweaver–Burk plots were calculated using GraphPad Prism (version 9.0).
(§2) To assess enzymatic activity, BRISC complexes were diluted to concentrations between 1 nM and 50 nM. […] Then, 20-μl enzyme reactions were carried out in 384-well black flat-bottom low-flange plates (Corning, 35373). DUB activity was measured using IQF K63-linked diubiquitin (LifeSensors, DU6303) at 50 nM. Cleaved diubiquitin was monitored by measuring fluorescence intensity (excitation, 544 nm; emission, 575 nm; dichroic mirror, 560 nm). Fluorescence intensity was measured every minute for 30 min at 30 °C. Fluorescence intensity units were plotted against time to generate a linear reaction progress curve, where the initial velocity (V0) corresponds to the gradient of the curve (typically achieved within 15 min). IC50 values were calculated using the GraphPad Prism (version 9.0) built-in dose–response equation for inhibitor concentration versus response (variable slope).

BRISC BRCC36 W130A = BRISC BRCC36 W130A (Homo sapiens, UniProt P46736+Q15018+Q9NXR7, W130A); assay: BRISC mutant IQF assay: BRCC36 W130A
Procedure: as §1, §2

BRISC BRCC36 L169A = BRISC BRCC36 L169A (Homo sapiens, UniProt P46736+Q15018+Q9NXR7, L169A); assay: BRISC mutant IQF assay: BRCC36 L169A
Procedure: as §1, §2

BRISC Abraxas2 T140A = BRISC Abraxas2 T140A (Homo sapiens, UniProt P46736+Q15018+Q9NXR7, T140A); assay: BRISC mutant IQF assay: Abraxas2 T140A; details: for Normalised V0: Abraxas2 T140A
Procedure: as §1, §2

BRISC BRCC45 R137A = BRISC BRCC45 R137A (Homo sapiens, UniProt P46736+Q15018+Q9NXR7, R137A); assay: BRISC mutant IQF assay: BRCC45 R137A
Procedure: as §1, §2

Normalised V0 (BRISC; SHMT2 0.00347222 nM): 0.9504 and 1.044 and 0.9816
Normalised V0 (BRISC; SHMT2 0.0347222 nM): 0.8685 and 1.128 and 1.002
Normalised V0 (BRISC; SHMT2 0.347222 nM): 0.5106 and 0.9767 and 0.8269
Normalised V0 (BRISC; SHMT2 1.04167 nM): 0.4439 and 0.8387 and 0.81
SHMT2 inhibition of BRISC mutant (BRISC BRCC36 W130A): reduced BRISC inhibition by SHMT2
Normalised V0 (BRISC BRCC36 W130A; SHMT2 0.00347222 nM): 1.237 and 1.127 and 0.9914
Normalised V0 (BRISC BRCC36 W130A; SHMT2 0.0347222 nM): 1.202 and 1.0039 and 1.016
Normalised V0 (BRISC BRCC36 W130A; SHMT2 0.347222 nM): 1.306 and 1.037 and 1.029
Normalised V0 (BRISC BRCC36 W130A; SHMT2 1.04167 nM): 1.133 and 0.9683 and 1.009
Normalised V0 (BRISC BRCC36 W130A; SHMT2 3.125 nM): 1.059 and 0.8824 and 0.9607
Normalised V0 (BRISC BRCC36 W130A; SHMT2 6.25 nM): 1.076 and 0.9844 and 0.926
Normalised V0 (BRISC BRCC36 W130A; SHMT2 12.5 nM): 0.9633 and 0.8672 and 0.8727
Normalised V0 (BRISC BRCC36 W130A; SHMT2 25 nM): 0.8129 and 0.833 and 0.8407
Normalised V0 (BRISC BRCC36 W130A; SHMT2 50 nM): 0.7117 and 0.7254 and 0.8132
Normalised V0 (BRISC BRCC36 W130A; SHMT2 100 nM): 0.5212 and 0.5553 and 0.3708
Normalised V0 (BRISC BRCC36 W130A; SHMT2 200 nM): 0.4561 and 0.482 and 0.3879
SHMT2 inhibition of BRISC mutant (BRISC BRCC36 L169A): reduced BRISC inhibition by SHMT2
Normalised V0 (BRISC BRCC36 L169A; SHMT2 0.00347222 nM): 1.281 and 0.8219 and 0.8866
Normalised V0 (BRISC BRCC36 L169A; SHMT2 0.0347222 nM): 1.039 and 0.8402 and 0.9713
Normalised V0 (BRISC BRCC36 L169A; SHMT2 0.347222 nM): 1.104 and 0.8836 and 0.9494
Normalised V0 (BRISC BRCC36 L169A; SHMT2 1.04167 nM): 1.083 and 0.823 and 0.89
Normalised V0 (BRISC BRCC36 L169A; SHMT2 3.125 nM): 0.9817 and 0.7218 and 0.8098
Normalised V0 (BRISC BRCC36 L169A; SHMT2 6.25 nM): 1.047 and 0.8687 and 0.8472
Normalised V0 (BRISC BRCC36 L169A; SHMT2 12.5 nM): 0.7117 and 0.4856 and 0.677
Normalised V0 (BRISC BRCC36 L169A; SHMT2 25 nM): 0.5132 and 0.7026 and 0.4911
Normalised V0 (BRISC BRCC36 L169A; SHMT2 50 nM): 0.4474 and 0.4092 and 0.7591
SHMT2 inhibition of BRISC mutant (BRISC Abraxas2 T140A; Abraxas 2 T140A): reduced BRISC inhibition by SHMT2
Normalised V0 (BRISC Abraxas2 T140A; SHMT2 0.00347222 nM): 0.9459 and 1.003 and 1.126
Normalised V0 (BRISC Abraxas2 T140A; SHMT2 0.0347222 nM): 0.9478 and 0.9048 and 1.065
Normalised V0 (BRISC Abraxas2 T140A; SHMT2 0.347222 nM): 1.002 and 0.9158 and 1.209
Normalised V0 (BRISC Abraxas2 T140A; SHMT2 1.04167 nM): 0.9422 and 0.8854 and 1.017
Normalised V0 (BRISC Abraxas2 T140A; SHMT2 3.125 nM): 0.7382 and 0.7698 and 1.0401
Normalised V0 (BRISC Abraxas2 T140A; SHMT2 6.25 nM): 0.8737 and 0.7897 and 1.032
Normalised V0 (BRISC Abraxas2 T140A; SHMT2 12.5 nM): 0.7421 and 0.6608 and 0.8191
Normalised V0 (BRISC Abraxas2 T140A; SHMT2 25 nM): 0.6241 and 0.5064 and 0.8208
Normalised V0 (BRISC Abraxas2 T140A; SHMT2 100 nM): 0.3175 and 0.5076
Normalised V0 (BRISC Abraxas2 T140A; SHMT2 200 nM): 0.2755 and 0.2287 and 0.3324
Normalised V0 (BRISC BRCC45 R137A; SHMT2 0.00347222 nM): 1.014 and 1.027 and 1.065
Normalised V0 (BRISC BRCC45 R137A; SHMT2 0.0347222 nM): 1.097 and 0.9804 and 1.087
B1: SHMT2: serine hydroxymethyltransferase 2, metabolic enzyme and endogenous inhibitor of BRISC DUB activity (protein)
chain: QLVRMAIRAQHSNAAQTQTGEANRGWTGQESLSDSDPEMWELLQREKDRQCRGLELIASENFCSRAALEALGSCLNNKYSEGYPGKRYYGGAEVVDEIELLCQRRALEAFDLDPAQWGVNVQPYSGSPANLAVYTALLQPHDRIMGLDLPDGGHLTHGYMSDVKRISATSIFFESMPYKLNPKTGLIDYNQLALTARLFRPRLIIAGTSAYARLIDYARMREVCDEVKAHLLADMAHISGLVAAKVIPSPFKHADIVTTTTHKTLRGTRSGLIFYRKGVKAVDPKTGREIPYTFEDRINFAVFPSLQGGPHNHAIAAVAVALKQACTPMFREYSLQVLKNARAMADALLERGYSLVSGGTDNHLVLVDLRPKGLDGARAERVLELVSITANKNTCPGDRSAITPGGLRLGAPALTSRQFREDDFRRVVDFIDEGVNIGLEVKSKTAKLQDFKSFLLKDSETSQRLANLRQRVEQFARAFPMPGFDEH
